Source: article PMC3072105 (Nature Communications, 2011)

T1: KvAP channel from Aeropyrum pernix, wild type (Aeropyrum pernix, UniProt Q9YDF8 14-295)
T1 sequence (looked up): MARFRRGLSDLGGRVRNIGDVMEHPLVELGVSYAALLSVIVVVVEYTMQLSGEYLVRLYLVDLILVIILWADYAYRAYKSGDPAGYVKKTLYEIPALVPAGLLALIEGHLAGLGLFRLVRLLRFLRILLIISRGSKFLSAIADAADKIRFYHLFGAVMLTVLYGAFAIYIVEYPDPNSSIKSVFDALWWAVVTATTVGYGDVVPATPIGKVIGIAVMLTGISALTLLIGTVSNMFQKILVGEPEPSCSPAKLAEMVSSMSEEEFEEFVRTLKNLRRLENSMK


Experiments:
[1] = target: full-length KvAP-T225C (Aeropyrum pernix); assay: cross-linking
[2] = target: T1, KvAP channel from Aeropyrum pernix, …; assay: electrophysiology

| stoichiometry N [1] | Kd [2] [µM] | Molecule |
| --- | --- | --- |
| 4 |  | full-length KvAP-T225C (natural protein) |
|  | 21.2 ± 3.5 | GNHAEIYSNHHMMSHVGGGR [synthetic φD peptide] |
